From patent publication US20210347908A1 (ELPISCIENCE SUZHOU BIOPHARMA, published 2021)
Like-named read-outs stand apart in the source and are kept apart here.

Tests used:
[1] = biological target: T1, Fc tagged human SIRPβ ECD recombinant protein (human, UniProt O00241 30-371); assay: ELISA
T1 construct: range 1-371; cloned range includes the signal peptide; also called hSIRPβ; not shown: human IgG Fc region (hFc) of the pCPC vector
Description: (§1) Binding specificity of the purified hybridoma antibodies against SIRP family members was detected by ELISA assay using recombinant proteins of Fc tagged human SIRPα v1 ECD, human SIRPα v2 ECD, human SIRPβ ECD and human SIRPγ ECD. Briefly the antibodies were incubated with ELISA microplate coated antigens at 37° C. for 1 hour. After washing, horseradish peroxidase (HRP) labeled anti-mouse or anti-human IgG 2nd Ab (Sigma) was added and incubated at 37° C. for 1 hour. Then, 100 μl/well of TMB solution (Biotechnology) was added. After incubation for 15 minutes at room temperature, the reaction was stopped by the addition of 50 μl of 1N HCl. OD 450 nm was read and EC₅₀ was calculated. Other than 060 and HEFLB, all of the antibodies as tested can bind with both human SIRPα v1 and SIRPα v2. 060 and HEFLB can bind with human SIRPα v1 but not v2. Other than 055, all of the antibodies as tested can bind with human SIRPβ. In comparison with other known anti-SIRPα antibodies, only 022, 035 and 050 can bind with human SIRPγ weakly.
(§2) The purified chimeric antibodies were applied for binding specificity analysis and species cross reactivity analysis (refer to methods described in Example 3.3 and 3.4). FIGS. 1A to 1D show binding specificity of anti-SIRPα chimeric antibodies against recombinant proteins of human SIRPα v1 ECD (A), human SIRPα v2 ECD (B), human SIRPβ ECD (C) and human SIRPγ ECD (D) as measured by ELISA analysis.

[2] = biological target: T2, Fc tagged human SIRPα v1 ECD recombinant protein (human, UniProt P78324 31-370); assay: ELISA
T2 construct: range 1-370; cloned range M1-R370 includes the signal peptide; also called hSIRPα V1; not shown: human IgG Fc region (hFc) of the pCPC vector
Description: as §1, §2

[3] = biological target: T3, full length human SIRPα v1 stably expressed on CHOK1 cells (human, UniProt P78324 31-504); assay: FACS on CHOK1 cells
T3 construct: whole, on cells; also called CHOK1-human SIRPα v1-1B4 cells; CHOK1-human SIRPα v1
Description: Species cross reactivity of the purified hybridoma antibodies against human, cyno and mouse SIRPα was determined by FACS assay using CHOK1-human SIRPα v1-1B4 cells, CHOK1-cyno SIRPα-2A2 cells, and CHOK1-C57BL/6 mouse SIRPα-2.22 cells, which stably expressing SIRPα protein. Briefly the antibodies were incubated with 2×10⁵ target cells at 4° C. for 1 hour. After washing, fluorescence labeled anti-mouse or anti-human IgG 2nd antibody (Life Technologies) was added and incubated at 4° C. for 1 hour. Geometric median fluorescence intensity was detected and EC₅₀ was calculated. In particular, it is noted, in contrast to the other antibodies tested in the same experiment, 060 cannot bind with cyno SIRPα and 035 has cross reactivity against C57BL/6 mouse SIRPα. […]

[4] = biological target: T2, Fc tagged human SIRPα v1 ECD …; assay: ELISA; remark: listed apart in the source
Description: as §1, §2

[5] = biological target: T3, full length human SIRPα v1 stably …; assay: FACS on CHOK1 cells; remark: listed apart in the source
Description: (§3) Species cross reactivity of the purified hybridoma antibodies against human, cyno and mouse SIRPα was determined by FACS assay using CHOK1-human SIRPα v1-1B4 cells, CHOK1-cyno SIRPα-2A2 cells, and CHOK1-C57BL/6 mouse SIRPα-2.22 cells, which stably expressing SIRPα protein. Briefly the antibodies were incubated with 2×10⁵ target cells at 4° C. for 1 hour. After washing, fluorescence labeled anti-mouse or anti-human IgG 2nd antibody (Life Technologies) was added and incubated at 4° C. for 1 hour. Geometric median fluorescence intensity was detected and EC₅₀ was calculated. In particular, it is noted, in contrast to the other antibodies tested in the same experiment, 060 cannot bind with cyno SIRPα and 035 has cross reactivity against C57BL/6 mouse SIRPα.
as §2

[6] = biological target: T4, full length C57BL/6 mouse SIRPα stably expressed on CHOK1 cells (mouse (C57BL/6), UniProt P97797 32-513); assay: FACS on CHOK1 cells
T4 construct: whole, on cells; also called CHOK1-C57BL/6 mouse SIRPα-2.22 cells
T4 sequence (looked up): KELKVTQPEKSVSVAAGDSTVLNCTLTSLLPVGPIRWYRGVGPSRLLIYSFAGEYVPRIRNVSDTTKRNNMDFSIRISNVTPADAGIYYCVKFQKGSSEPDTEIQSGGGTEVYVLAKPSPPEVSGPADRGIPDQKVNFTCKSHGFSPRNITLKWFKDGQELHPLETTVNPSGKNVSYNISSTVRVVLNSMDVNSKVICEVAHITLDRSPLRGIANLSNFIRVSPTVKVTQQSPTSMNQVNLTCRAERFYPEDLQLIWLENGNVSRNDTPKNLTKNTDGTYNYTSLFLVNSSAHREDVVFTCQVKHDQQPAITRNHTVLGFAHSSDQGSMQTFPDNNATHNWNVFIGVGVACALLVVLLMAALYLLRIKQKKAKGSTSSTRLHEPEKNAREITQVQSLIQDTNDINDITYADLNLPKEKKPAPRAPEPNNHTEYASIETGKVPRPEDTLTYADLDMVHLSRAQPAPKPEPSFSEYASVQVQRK
Description: as §3, §2

[7] = biological target: T5, biotin labeled soluble human SIRPα v1 ECD recombinant protein (human, UniProt P78324 31-373, biotin labeled); assay: competitive ELISA; competitor 29-AM4-5
T5 construct: extracellular domain
Description: (§4) Competitive ELISA assay was used for epitope binning of 9 functional antibodies. Briefly excessive competitor antibody and biotin labeled soluble human SIRPα v1 ECD recombinant protein were co-incubated with ELISA microplate coated antibody. After washing, HRP-SA was added and incubated at 37° C. for 1 hour. Then, […] of TMB solution (Biotechnology) was added. After incubation for 15 minutes at room temperature, the reaction was stopped by the addition of […] of 1N HCl. OD 450 nm was read. Competition ratio was calculated. The antibodies that can compete each other for binding to SIRPα have the similar binding epitope.

[8] = biological target: T5, biotin labeled soluble human SIRPα v1 …; assay: competitive ELISA; competitor 055
Description: as §4

[9] = biological target: T3, full length human SIRPα v1 stably …; assay: FACS on CHOK1 cells; remark: listed apart in the source
[10] = biological target: T5, biotin labeled soluble human SIRPα v1 …; assay: competitive ELISA; competitor 035
Description: as §4

T5 sequence (P78324 31-373): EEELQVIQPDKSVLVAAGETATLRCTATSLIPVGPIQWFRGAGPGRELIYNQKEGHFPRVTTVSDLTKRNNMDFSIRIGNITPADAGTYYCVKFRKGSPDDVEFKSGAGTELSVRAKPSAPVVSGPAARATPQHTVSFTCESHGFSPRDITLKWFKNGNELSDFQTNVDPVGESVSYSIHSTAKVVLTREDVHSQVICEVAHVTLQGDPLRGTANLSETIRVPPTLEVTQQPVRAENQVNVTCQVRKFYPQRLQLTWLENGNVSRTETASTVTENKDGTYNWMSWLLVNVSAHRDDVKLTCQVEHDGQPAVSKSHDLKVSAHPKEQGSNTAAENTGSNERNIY
T2 sequence (P78324 31-370 limits assumed): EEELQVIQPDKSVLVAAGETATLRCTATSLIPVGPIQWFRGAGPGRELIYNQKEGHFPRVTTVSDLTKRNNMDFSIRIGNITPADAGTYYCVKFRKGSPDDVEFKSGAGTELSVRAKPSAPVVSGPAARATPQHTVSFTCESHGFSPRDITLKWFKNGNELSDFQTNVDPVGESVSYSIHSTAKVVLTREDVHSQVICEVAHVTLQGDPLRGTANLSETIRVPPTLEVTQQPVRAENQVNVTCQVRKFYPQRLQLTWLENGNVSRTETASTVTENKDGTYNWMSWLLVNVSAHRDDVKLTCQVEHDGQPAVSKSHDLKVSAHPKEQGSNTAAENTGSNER
T3 sequence (P78324 31-504): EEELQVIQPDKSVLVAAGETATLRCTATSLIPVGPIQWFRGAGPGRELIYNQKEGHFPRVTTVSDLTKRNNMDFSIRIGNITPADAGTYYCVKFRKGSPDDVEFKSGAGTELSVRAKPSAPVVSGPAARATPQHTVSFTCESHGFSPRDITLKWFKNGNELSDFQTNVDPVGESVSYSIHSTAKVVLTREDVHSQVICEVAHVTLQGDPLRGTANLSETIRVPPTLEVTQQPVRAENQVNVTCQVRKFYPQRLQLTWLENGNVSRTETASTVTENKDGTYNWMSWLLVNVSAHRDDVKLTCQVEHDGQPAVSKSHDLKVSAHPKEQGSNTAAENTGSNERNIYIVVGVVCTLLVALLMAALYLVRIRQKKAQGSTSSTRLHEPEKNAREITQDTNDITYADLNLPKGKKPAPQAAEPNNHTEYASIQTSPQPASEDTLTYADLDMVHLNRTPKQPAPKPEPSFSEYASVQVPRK
T1 sequence (O00241 30-371 limits assumed, form in doubt): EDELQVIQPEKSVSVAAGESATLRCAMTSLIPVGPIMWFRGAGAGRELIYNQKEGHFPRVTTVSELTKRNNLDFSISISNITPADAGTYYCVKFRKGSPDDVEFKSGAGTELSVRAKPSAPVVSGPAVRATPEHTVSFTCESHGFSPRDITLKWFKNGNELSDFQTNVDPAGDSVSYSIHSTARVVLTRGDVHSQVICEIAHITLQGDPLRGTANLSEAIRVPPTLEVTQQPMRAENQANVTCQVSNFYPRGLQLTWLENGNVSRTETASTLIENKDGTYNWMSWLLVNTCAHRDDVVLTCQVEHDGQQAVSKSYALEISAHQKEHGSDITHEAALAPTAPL

B1: chimeric antibody 001c (antibody, V domains shown)
VH: EVKLEESGGGLVQPGGSMKLSCVASGFTFRNYWMNWVRQSPERGLEWIAEISLKSNTYATHYAESVKGRFAISRDGSKSSFYLQMNDLRAEDTGIYYCTTFTKVVADWHLDVWGAGTTVTVSS
VL: DVLMTQTPLSLPVSLGDQASISCRSSQNIVHSNGNTYLEWYLQKPGQSPKLLIYKVSNRFSGVPDRFSGSGSGTDFTLRISRVEAEDLGVYYCFQGSHVPFTFGSGTKLEIK
- EC50 [1]: 0.12 nM
- EC50 [2]: 0.12 nM
- EC50 [3]: 1.7 nM
- EC50 [4]: 0.12 nM
- EC50 [5]: 1.7 nM
- binding result [6]: no binding (tested: 10 nM)

B2: Antibody 001 (hybridoma antibody) (antibody, V domains shown)
VH: EVKLEESGGGLVQPGGSMKLSCVASGFTFRNYWMNWVRQSPERGLEWIAEISLKSNTYATHYAESVKGRFAISRDGSKSSFYLQMNDLRAEDTGIYYCTTFTKVVADWHLDVWGAGTTVTVSS
VL: DVLMTQTPLSLPVSLGDQASISCRSSQNIVHSNGNTYLEWYLQKPGQSPKLLIYKVSNRFSGVPDRFSGSGSGTDFTLRISRVEAEDLGVYYCFQGSHVPFTFGSGTKLEIK
notes: mouse hybridoma antibody
- % Competition [7]: 92%
- % Competition [8]: 4%
- EC50 [9]: 1 nM
- % Competition [10]: 96%

B3: Antibody 002 (hybridoma antibody) (antibody, V domains shown)
VH: EVKLEESGGGLVQPGGSMILSCVASGFTFRNYWMNWVRQSPERGLEWIAEITLKSNTYATHYAESVKGRFAISRDDSKSSFYLQMNDLRPEDTGIYYCTTFTKVVADWHLDVWGAGTTVTVSS
VL: DVLMTQTPLSLPVSLGDQASISCRSSQNIVHSNGNTYLEWYLQKPGQSPKLLIYKISNRFSGVPDRFSGSGSGTDFTLRISRVEAEDLGVYYCFQGSHVPFTFGSGTKLEIQ
notes: mouse hybridoma antibody
- % Competition [7]: 87%
- % Competition [8]: -16%
- EC50 [9]: 1 nM
- % Competition [10]: 93%

B4: Antibody 032 (hybridoma antibody) (antibody, V domains shown)
VH: EVRLEESGGGLVQPGGSMKLSCVVSGFTFRNYWMNWVRQSPERGLEWIAEITLKSNTYATHYAESVKGRFAISRDDSKSSFYLQMNDLRPEDTGIYYCTTFTKVVADWHLDVWGAGTTVTVSS
VL: DVLMTQTPLSLPVNLGDQASISCRSSQNIVHSNGNTYLEWYLQKPGQSPKLLIYKVSNRFSGVPDRFSGSGSGTDFTLRISRVEAEDLGVYYCFQGSHVPFTFGSGTKLEIK
notes: mouse hybridoma antibody
- % Competition [7]: 83%
- % Competition [8]: 3%
- EC50 [9]: 0.4 nM
- % Competition [10]: 91%

B5: chimeric antibody 055c (antibody, V domains shown)
VH: EVKLVESEGGLVQPGDSMKLSCTASGFTFSDYFMTWIRQVPEKGLEWIANVNYDGRSTYYLDSLKSRFIISRDNANNILYLQMSSLKSEDTATYYCAREGSQTPLYAVDYWGQGTSVTVSS
VL: DIVMTQSQKFMSTTVGDRVNITCKASQNVGTAVAWYQQKPGQSPKLLIYLASNRYTGVPDRFTGSGSGTDFTLTVSDMRSEDLADYFCQQYSIYPFTFGSGTKLEIK
- EC50 [2]: 0.11 nM
- EC50 [3]: 3.4 nM
- EC50 [4]: 0.11 nM
- EC50 [5]: 3.4 nM
- binding result [6]: no binding (tested: 10 nM)

B6: Antibody 035 (hybridoma antibody) (antibody, V domains shown)
VH: QIQLVQSGPELRKPGETVKISCKASGYSFTNYAMNWVKQAPGKVLKWMGFINTYTGEPTYADDFKGRFAFSLETSASTAYLQINNLKNEDTATYFCTRTRGYYDFDGGAFDYWGQGTSLTVSS
VL: DIVMTQSQKFMSTSIGDRVSVTCKASQNVGTHLAWYQQKPGQSPKALIFSASYRYIGVPDRFTGSGSGTDFTLTITNVQSEDLAEYFCQQYNTYPLTFGAGTKLELK
notes: mouse hybridoma antibody
- % Competition [7]: 50%
- % Competition [8]: -1%
- EC50 [9]: 0.7 nM
- % Competition [10]: 93%

B7: Antibody 074 (hybridoma antibody) (antibody, V domains shown)
VH: QVQLQQPRAELVKPGASVMLSCKASGYTFSSYWIHWVRQGPGQGLEWIGLIHPNSGNTDCSETFKNKATLTVDTSSSTAYMQLSSLASEDSAVYYCARDGASYDWFVHWGQGTLVTVSA
VL: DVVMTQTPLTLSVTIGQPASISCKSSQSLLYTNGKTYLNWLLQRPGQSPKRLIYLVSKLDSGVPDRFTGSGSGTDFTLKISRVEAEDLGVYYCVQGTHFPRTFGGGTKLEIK
notes: mouse hybridoma antibody
- % Competition [7]: -19%
- % Competition [8]: -17%
- EC50 [9]: 1 nM
- % Competition [10]: 10%

B8: Antibody 022 (hybridoma antibody) (antibody, V domains shown)
VH: QIQLVQSGPELKKPGETVKISCKASGYTFTDYAMHWVKQAPGKGLKWMGWKNTETGESTYAEDFKGRFAFFLETSASTAYLQINNVKNEDTATYFCARGGYGSNYVMDYWGQGTSVIVSS
VL: DIQMTQSSSSFSVSLGDRVTITCKASEDIYNRLAWYQQKPGNAPRLLISGATSLETGVPSRFSGSGSGKDYTLSITSLQTEDVATYYCQQYWNSPRTFGGGTKLEIK
notes: mouse hybridoma antibody
- % Competition [7]: 2%
- % Competition [8]: 1%
- EC50 [9]: 2.1 nM
- % Competition [10]: 0%

B9: Antibody 050 (hybridoma antibody) (antibody, V domains shown)
VH: QIQLVQSGPELKKPGETVKISCKASGYTFTHYSMHWVKQAPGKGLKWMGWINTETAEPTYVDDFKGRFAFSLEASASTAFFQINNLKNEDTATYFCARGGLRQGDYWGQGTTLTVSS
VL: QIVLTQSPPIMSASPGEKVTLTCSATSSVSASYLYWFQQKPGSSPKLWIYSTSNLASGVPARFSGSGSGTSYSLTISNMEPADAASYFCHQWSSYPYTFGGGTKLEIK
notes: mouse hybridoma antibody
- % Competition [7]: -6%
- % Competition [8]: -16%
- EC50 [9]: 1.3 nM
- % Competition [10]: -4%

B10: Antibody 060 (hybridoma antibody) (antibody, V domains shown)
VH: QVQLKESGPGLVAPSESLSITCTVSGFSLTNYDISWIRQSPGKGLEWLGVIWTGGDTNFNSAFMSRLSISKDKSKSQVFLKLNSLQTDDTAIYYCVRVQYFGGSYGPMDYWGQGISVTVSS
VL: DIQMTQASSYLSVSLGGRVTITCEASDHINDWLAWYQQTPGNAPRLLISGATSLETGVPSRFSGSGSGKDYTLSITSLQTEDIATYYCQQYWNTPLTFGAGTRLELK
notes: mouse hybridoma antibody
- % Competition [7]: -5%
- % Competition [8]: 7%
- EC50 [9]: 0.9 nM
- % Competition [10]: 3%
